The values below come from patent publication EP4538286A1 (Adlai Nortye Biopharma Co., Ltd., dated 2025).

One assay addresses T1, human CD28 protein (human, UniProt P10747 19-152).
T1 construct: bought protein coated on the ELISA plate; also called human CD28 antigen
As to the kind of experiment: ELISA, plate-coated human CD28. For orientation: An ELISA detects its analyte on a solid surface through an enzyme-linked reagent.

The target of the next assay is T2, human CTLA4 protein (human, UniProt P16410 37-162, limits assumed).
T2 construct: bought protein coated on the ELISA plate; also called human CTLA4 antigen
T2 sequence (looked up): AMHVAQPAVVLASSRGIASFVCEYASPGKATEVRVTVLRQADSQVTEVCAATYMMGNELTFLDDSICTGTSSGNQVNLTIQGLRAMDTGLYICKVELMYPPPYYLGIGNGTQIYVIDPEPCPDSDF
Kind of assay: ELISA, plate-coated human CTLA4.

T1 sequence (P10747 19-152 limits assumed): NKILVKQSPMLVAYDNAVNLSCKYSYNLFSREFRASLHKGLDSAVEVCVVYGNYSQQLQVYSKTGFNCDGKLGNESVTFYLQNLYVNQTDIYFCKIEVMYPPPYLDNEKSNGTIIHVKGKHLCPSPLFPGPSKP

B1: Abs-252 (other)
heavy: VIHVTKEVKEVATLSCGHNVSVEELAQTRIYWQKEKKMVLTMMSGDMNIWPEYKNRTIFDITNNLSIVWLELRPSDEGTYECLVLKYEKDAFKREHLAEVTLSVKADGGGGSGGGGSGGGGSGGGGSGEVQLLESGGGLVQPGGSLRLSCAASGFTFSSYAMSWVRQAPGKGLEWVSGISGSGGFTYYADSVKGRFTISRDNSKNTLYLQMNSLRAEDTAVYYCAKPPRGYNYGPFDYWGQGTLVTVSSASTKGPSVFPLAPCSRSTSESTAALGCLVKDYFPEPVTVSWNSGALTSGVHTFPAVLQSSGLYSLSSVVTVPSSSLGTKTYTCNVDHKPSNTKVDKRVESKYGPPCPPCPAPEFLGGPSVFLFPPKPKDTLMISRTPEVTCVVVDVSQEDPEVQFNWYVDGVEVHNAKTKPREEQFNSTYRVVSVLAVLHQDWLNGKEYKCKVSNKGLPSSIEKTISKAKGQPREPQVYTLPPSQEEMTKNQVSLTCLVKGFYPSDIAVAWESNGQPENNYKTTPPVLDSDGSFFLYSRLTVDKSRWQEGNVFSCSVMHEALHAHYTQKSLSLSLGK
light: SYVLTQPPSVSVAPGQTARITCGGNNIGSKSVHWYQQKPGQAPVLVVYDDSDRPSGIPERFSGSNSGNTATLTISRVEAGDEADYYCQVWDSSSDHVVFGGGTKLTVLGQPKAAPSVTLFPPSSEELQANKATLVCLISDFYPGAVTVAWKADSSPVKAGVETTTPSKQSNNKYAASSYLSLTPEQWKSHRSYSCQVTHEGSTVEKTVAPTECS
notes: the paragraph that names the antibody is followed; also called CD80 IgV mutant I69W/A71E/V83L-sugemalimab fusion
For the molecule B1, the binding result with human CD28 protein and in the assay with human CTLA4 protein was “no binding” throughout.

B2: Abs-254 (other)
heavy: VIHVTKEVKEVATLSCGHNVSVEELAQTRIYWQKEKKMVLTMMSGDMNIWPEYKNRTIFDITNNLSIVWLELRPSDEGTYECVVLKYEKDAFKREHLAEVTLSVKADGGGGSGGGGSGGGGSGGGGSGEVQLLESGGGLVQPGGSLRLSCAASGFTFSSYAMSWVRQAPGKGLEWVSGISGSGGFTYYADSVKGRFTISRDNSKNTLYLQMNSLRAEDTAVYYCAKPPRGYNYGPFDYWGQGTLVTVSSASTKGPSVFPLAPCSRSTSESTAALGCLVKDYFPEPVTVSWNSGALTSGVHTFPAVLQSSGLYSLSSVVTVPSSSLGTKTYTCNVDHKPSNTKVDKRVESKYGPPCPPCPAPEFLGGPSVFLFPPKPKDTLMISRTPEVTCVVVDVSQEDPEVQFNWYVDGVEVHNAKTKPREEQFNSTYRVVSVLAVLHQDWLNGKEYKCKVSNKGLPSSIEKTISKAKGQPREPQVYTLPPSQEEMTKNQVSLTCLVKGFYPSDIAVAWESNGQPENNYKTTPPVLDSDGSFFLYSRLTVDKSRWQEGNVFSCSVMHEALHAHYTQKSLSLSLGK
light: SYVLTQPPSVSVAPGQTARITCGGNNIGSKSVHWYQQKPGQAPVLVVYDDSDRPSGIPERFSGSNSGNTATLTISRVEAGDEADYYCQVWDSSSDHVVFGGGTKLTVLGQPKAAPSVTLFPPSSEELQANKATLVCLISDFYPGAVTVAWKADSSPVKAGVETTTPSKQSNNKYAASSYLSLTPEQWKSHRSYSCQVTHEGSTVEKTVAPTECS
notes: the paragraph that names the antibody is followed; also called CD80 IgV mutant I69W/A71E-sugemalimab fusion
With B2, the binding result in the assay with human CD28 protein and in the assay with human CTLA4 protein was “no binding” throughout.

B3: Abs-255 (other)
heavy: VIHVTKEVKEVATLSCGWNVSVEELMQTRIYWQKEKKMVLTMMSGDMNIWPEYKNRTIFDITNNLSIVILELRPSDEGTYECVVNKYEKDAFKREHLAEVTLSVKADGGGGSGGGGSGGGGSGGGGSGEVQLLESGGGLVQPGGSLRLSCAASGFTFSSYAMSWVRQAPGKGLEWVSGISGSGGFTYYADSVKGRFTISRDNSKNTLYLQMNSLRAEDTAVYYCAKPPRGYNYGPFDYWGQGTLVTVSSASTKGPSVFPLAPCSRSTSESTAALGCLVKDYFPEPVTVSWNSGALTSGVHTFPAVLQSSGLYSLSSVVTVPSSSLGTKTYTCNVDHKPSNTKVDKRVESKYGPPCPPCPAPEFLGGPSVFLFPPKPKDTLMISRTPEVTCVVVDVSQEDPEVQFNWYVDGVEVHNAKTKPREEQFNSTYRVVSVLAVLHQDWLNGKEYKCKVSNKGLPSSIEKTISKAKGQPREPQVYTLPPSQEEMTKNQVSLTCLVKGFYPSDIAVAWESNGQPENNYKTTPPVLDSDGSFFLYSRLTVDKSRWQEGNVFSCSVMHEALHAHYTQKSLSLSLGK
light: SYVLTQPPSVSVAPGQTARITCGGNNIGSKSVHWYQQKPGQAPVLVVYDDSDRPSGIPERFSGSNSGNTATLTISRVEAGDEADYYCQVWDSSSDHVVFGGGTKLTVLGQPKAAPSVTLFPPSSEELQANKATLVCLISDFYPGAVTVAWKADSSPVKAGVETTTPSKQSNNKYAASSYLSLTPEQWKSHRSYSCQVTHEGSTVEKTVAPTECS
notes: the paragraph that names the antibody is followed; also called CD80 IgV mutant H18W/A26M/A71E/L85N-sugemalimab fusion
Consider B3, for which the binding result with human CD28 protein and in the assay with human CTLA4 protein was “no binding” each time.

B4: Abs-253 (other)
heavy: VIHVTKEVKEVATLSCGHNVSVEELAQTRIYWQKEKKMVLTMMSGDMNIWPEYKNRTIFDITNNLSIVYLELRPSDEGTYECVVLKYEKDAFKREHLAEVTLSVKADGGGGSGGGGSGGGGSGGGGSGEVQLLESGGGLVQPGGSLRLSCAASGFTFSSYAMSWVRQAPGKGLEWVSGISGSGGFTYYADSVKGRFTISRDNSKNTLYLQMNSLRAEDTAVYYCAKPPRGYNYGPFDYWGQGTLVTVSSASTKGPSVFPLAPCSRSTSESTAALGCLVKDYFPEPVTVSWNSGALTSGVHTFPAVLQSSGLYSLSSVVTVPSSSLGTKTYTCNVDHKPSNTKVDKRVESKYGPPCPPCPAPEFLGGPSVFLFPPKPKDTLMISRTPEVTCVVVDVSQEDPEVQFNWYVDGVEVHNAKTKPREEQFNSTYRVVSVLAVLHQDWLNGKEYKCKVSNKGLPSSIEKTISKAKGQPREPQVYTLPPSQEEMTKNQVSLTCLVKGFYPSDIAVAWESNGQPENNYKTTPPVLDSDGSFFLYSRLTVDKSRWQEGNVFSCSVMHEALHAHYTQKSLSLSLGK
light: SYVLTQPPSVSVAPGQTARITCGGNNIGSKSVHWYQQKPGQAPVLVVYDDSDRPSGIPERFSGSNSGNTATLTISRVEAGDEADYYCQVWDSSSDHVVFGGGTKLTVLGQPKAAPSVTLFPPSSEELQANKATLVCLISDFYPGAVTVAWKADSSPVKAGVETTTPSKQSNNKYAASSYLSLTPEQWKSHRSYSCQVTHEGSTVEKTVAPTECS
notes: the paragraph that names the antibody is followed; also called CD80 IgV mutant I69Y/A71E-sugemalimab fusion
Turning to B4, the binding result in the assay with human CD28 protein and with human CTLA4 protein was “no binding” each time.

B5: Abs-259 (other)
heavy: VIHVTKEVKEVATLSCGHNVSVEELMQTRIYWQKEKKMVLTMMSGDMNIWPEYKNRTIFDITNNLSIVILELRPSDEGTYECVVNKYEKDAFKREHLAEVTLSVKADGGGGSGGGGSGGGGSGGGGSGEVQLLESGGGLVQPGGSLRLSCAASGFTFSSYAMSWVRQAPGKGLEWVSGISGSGGFTYYADSVKGRFTISRDNSKNTLYLQMNSLRAEDTAVYYCAKPPRGYNYGPFDYWGQGTLVTVSSASTKGPSVFPLAPCSRSTSESTAALGCLVKDYFPEPVTVSWNSGALTSGVHTFPAVLQSSGLYSLSSVVTVPSSSLGTKTYTCNVDHKPSNTKVDKRVESKYGPPCPPCPAPEFLGGPSVFLFPPKPKDTLMISRTPEVTCVVVDVSQEDPEVQFNWYVDGVEVHNAKTKPREEQFNSTYRVVSVLAVLHQDWLNGKEYKCKVSNKGLPSSIEKTISKAKGQPREPQVYTLPPSQEEMTKNQVSLTCLVKGFYPSDIAVAWESNGQPENNYKTTPPVLDSDGSFFLYSRLTVDKSRWQEGNVFSCSVMHEALHAHYTQKSLSLSLGK
light: SYVLTQPPSVSVAPGQTARITCGGNNIGSKSVHWYQQKPGQAPVLVVYDDSDRPSGIPERFSGSNSGNTATLTISRVEAGDEADYYCQVWDSSSDHVVFGGGTKLTVLGQPKAAPSVTLFPPSSEELQANKATLVCLISDFYPGAVTVAWKADSSPVKAGVETTTPSKQSNNKYAASSYLSLTPEQWKSHRSYSCQVTHEGSTVEKTVAPTECS
notes: the paragraph that names the antibody is followed; also called CD80 IgV mutant A26M/A71E/L85N-sugemalimab fusion
As to B5, the binding result with human CD28 protein and with human CTLA4 protein was “no binding” throughout.

B6: Abs-258 (other)
heavy: VIHVTKEVKEVATLSCGWNVSVEELCQTRIYWQKEKKMVLTMMSGDMNIWPEYKNRTIFDITNNLSIVILELRPSDEGTYECVVDKYEKDAFKREHLAEVTLSVKADGGGGSGGGGSGGGGSGGGGSGEVQLLESGGGLVQPGGSLRLSCAASGFTFSSYAMSWVRQAPGKGLEWVSGISGSGGFTYYADSVKGRFTISRDNSKNTLYLQMNSLRAEDTAVYYCAKPPRGYNYGPFDYWGQGTLVTVSSASTKGPSVFPLAPCSRSTSESTAALGCLVKDYFPEPVTVSWNSGALTSGVHTFPAVLQSSGLYSLSSVVTVPSSSLGTKTYTCNVDHKPSNTKVDKRVESKYGPPCPPCPAPEFLGGPSVFLFPPKPKDTLMISRTPEVTCVVVDVSQEDPEVQFNWYVDGVEVHNAKTKPREEQFNSTYRVVSVLAVLHQDWLNGKEYKCKVSNKGLPSSIEKTISKAKGQPREPQVYTLPPSQEEMTKNQVSLTCLVKGFYPSDIAVAWESNGQPENNYKTTPPVLDSDGSFFLYSRLTVDKSRWQEGNVFSCSVMHEALHAHYTQKSLSLSLGK
light: SYVLTQPPSVSVAPGQTARITCGGNNIGSKSVHWYQQKPGQAPVLVVYDDSDRPSGIPERFSGSNSGNTATLTISRVEAGDEADYYCQVWDSSSDHVVFGGGTKLTVLGQPKAAPSVTLFPPSSEELQANKATLVCLISDFYPGAVTVAWKADSSPVKAGVETTTPSKQSNNKYAASSYLSLTPEQWKSHRSYSCQVTHEGSTVEKTVAPTECS
notes: the paragraph that names the antibody is followed; also called CD80 IgV mutant H18W/A26C/A71E/L85D-sugemalimab fusion
Turning to B6, the binding result with human CD28 protein and with human CTLA4 protein was “no binding” each time.

B7: Abs-261 (other)
heavy: VIHVTKEVKEVATLSCGHNVSVEELCQTRIYWQKEKKMVLTMMSGDMNIWPEYKNRTIFDITNNLSIVILELRPSDEGTYECVVDKYEKDAFKREHLAEVTLSVKADGGGGSGGGGSGGGGSGGGGSGEVQLLESGGGLVQPGGSLRLSCAASGFTFSSYAMSWVRQAPGKGLEWVSGISGSGGFTYYADSVKGRFTISRDNSKNTLYLQMNSLRAEDTAVYYCAKPPRGYNYGPFDYWGQGTLVTVSSASTKGPSVFPLAPCSRSTSESTAALGCLVKDYFPEPVTVSWNSGALTSGVHTFPAVLQSSGLYSLSSVVTVPSSSLGTKTYTCNVDHKPSNTKVDKRVESKYGPPCPPCPAPEFLGGPSVFLFPPKPKDTLMISRTPEVTCVVVDVSQEDPEVQFNWYVDGVEVHNAKTKPREEQFNSTYRVVSVLAVLHQDWLNGKEYKCKVSNKGLPSSIEKTISKAKGQPREPQVYTLPPSQEEMTKNQVSLTCLVKGFYPSDIAVAWESNGQPENNYKTTPPVLDSDGSFFLYSRLTVDKSRWQEGNVFSCSVMHEALHAHYTQKSLSLSLGK
light: SYVLTQPPSVSVAPGQTARITCGGNNIGSKSVHWYQQKPGQAPVLVVYDDSDRPSGIPERFSGSNSGNTATLTISRVEAGDEADYYCQVWDSSSDHVVFGGGTKLTVLGQPKAAPSVTLFPPSSEELQANKATLVCLISDFYPGAVTVAWKADSSPVKAGVETTTPSKQSNNKYAASSYLSLTPEQWKSHRSYSCQVTHEGSTVEKTVAPTECS
notes: the paragraph that names the antibody is followed; also called CD80 IgV mutant A26C/A71E/L85D-sugemalimab fusion
As to B7, the binding result with human CD28 protein and with human CTLA4 protein was “no binding” in each case.
